This is an account of results in article PMC6746150, “Long-Term Local Injection of RAGE-Aptamer Suppresses the Growth of Malignant Melanoma in Nude Mice”.

This data set deals with V-domain RAGE (vRAGE) (human, UniProt Q15109 23-121). The data set is described as follows: QCM (27 MHz); vRAGE immobilized; N = 3; 27-MHz QCM, vRAGE immobilized on sensor; buffer, salt, pH and temperature not stated (as described previously, ref 16).
Chain of V-domain RAGE (vRAGE) (Q15109 23-121): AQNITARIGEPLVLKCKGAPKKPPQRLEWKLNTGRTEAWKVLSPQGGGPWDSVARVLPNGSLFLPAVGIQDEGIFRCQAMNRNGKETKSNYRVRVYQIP

B1: RAGE-aptamer (XNA)
DNA: CCTGATATGGTGTCACCGCCGCCTTAGTATTGGTGTCTAC
modifications: phosphorothioate nucleotides at capital letters: ccTgATATggTgTcAccgccgccTTAgTATTggTgTcTAc (DNA)
As for B1, the Kd turned out to be 4.44 ± 0.56 nM.
